Measurements reported in patent publication US20250283885A1, “MODULAR BIOSENSOR FOR RECEPTOR TYROSINE KINASE ACTIVITY” (The Trustees of Princeton University, priority 2024, published 2025).

How the values were obtained:
[1] = molecular target: EGFR (Homo sapiens, UniProt P00533); assay: EGFR pYtag live-cell imaging: clearance of cytosolic ZtSH2 in NIH 3T3 cells; details: varying doses, NIH 3T3 EGFR pYtag
Text: Six ITAMs from the CD3γ, CD3δ, CD3ε, and CD3ζ chains of the TCR. In each case, three identical repeats of the ITAM were fused to the C-terminal tail of EGFR followed by the FusionRed fluorescent protein (EGFR-ITAM-FusionRed). Each receptor was the co-expressed with an iRFP-labeled ZtSH2 (iRFP-ZtSH2) in NIH 3T3 fibroblasts, which express negligible levels of EGFR. […] Because ZtSH2 can in principle be recruited rapidly on and off the membrane and may localize to distinct subcellular compartments, it was reasoned that pYtags could be used to monitor the subcellular activity of an RTK in individual cells over time.

[2] = molecular target: T1, FGFR1 (Homo sapiens, UniProt P11362); assay: FGFR1 pYtag in NIH 3T3 cells: clearance of cytosolic ZtSH2; type: cell-based; details: not in cells with ITAM-less FGFR1
T1 construct: expressed in transfected cells; host or cells: NIH 3T3 cells expressing iRFP-ZtSH2
T1 sequence (P11362 22-822, species assumed): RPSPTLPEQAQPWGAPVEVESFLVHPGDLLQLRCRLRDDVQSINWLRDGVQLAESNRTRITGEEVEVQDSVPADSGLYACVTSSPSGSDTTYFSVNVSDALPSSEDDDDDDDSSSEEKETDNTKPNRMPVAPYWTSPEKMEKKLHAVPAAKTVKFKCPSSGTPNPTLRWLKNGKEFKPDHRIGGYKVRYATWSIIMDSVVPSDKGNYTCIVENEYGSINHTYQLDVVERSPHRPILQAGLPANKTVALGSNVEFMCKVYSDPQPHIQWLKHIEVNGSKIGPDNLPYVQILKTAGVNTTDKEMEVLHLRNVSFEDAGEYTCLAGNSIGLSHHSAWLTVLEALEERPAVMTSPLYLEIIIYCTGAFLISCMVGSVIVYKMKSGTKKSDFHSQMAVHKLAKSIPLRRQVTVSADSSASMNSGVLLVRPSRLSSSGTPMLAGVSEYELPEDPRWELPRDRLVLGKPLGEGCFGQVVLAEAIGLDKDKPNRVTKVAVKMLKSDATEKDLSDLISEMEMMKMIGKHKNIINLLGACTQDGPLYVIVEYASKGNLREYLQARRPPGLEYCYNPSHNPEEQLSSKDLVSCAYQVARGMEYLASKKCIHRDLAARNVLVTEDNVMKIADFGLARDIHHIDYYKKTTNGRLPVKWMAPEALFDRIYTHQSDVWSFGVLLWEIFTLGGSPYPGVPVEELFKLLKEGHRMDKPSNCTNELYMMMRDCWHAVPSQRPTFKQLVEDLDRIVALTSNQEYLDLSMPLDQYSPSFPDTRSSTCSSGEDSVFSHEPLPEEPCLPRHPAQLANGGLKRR
Experimental: One advantage of the pYtag approach is its modularity: ITAMs can in principle be fused to the C-termini of many different RTKs and recruit ZtSH2 upon stimulation. Therefore, it was tested whether pYtags could be adapted to monitor the activity of receptors other than EGFR. pYtag biosensors were designed for two additional RTKs: 1) ErbB2, a ligandless member of the ErbB family that signals by heterodimerizing with ligand-bound EGFR; and 2) fibroblast growth factor receptor 1 (FGFR1), a non-ErbB family RTK. ErbB2 is a particularly challenging RTK to study because it can only be activated in conjunction with an additional RTK (e.g., EGFR), so Grb2-based biosensors would be unable to distinguish between the activity of EGFR and ErbB2.
Starting from NIH 3T3 cells expressing iRFP-ZtSH2, cell lines expressing either an ErbB2 pYtag (ErbB2-CD3ε-FusionRed), an FGFR1 pYtag (FGFR1-CD3ε-FusionRed), or ITAM-less variants of each were generated. For the ErbB2 case, cells with EGFR-Citrine were further transduced to express both required components of a functional receptor heterodimer (see FIG. 3, and FIGS. 4A-4B).
The pYtag approach is indeed modular, and this strategy can be readily adapted for monitoring the activation of distinct RTKs in individual cells.

| Molecule | EGFR activity dynamics after low-affinity ligand [1] | ZtSH2 response of FGFR1 pYtag-expressing cells [2] |
| --- | --- | --- |
| EPGN: epigen, low-affinity EGFR ligand (protein, UniProt Q6UW88 23-154, looked up) Epigen: AAVTVTPPITAQQGNWTVNKTEADNIEGPIALKFSHLCLEDHNSYCINGACAFHHELEKAICRCFTGYTGERCEHLTLTSYAVDSYEKYIAIGIGVGLLLSGFLVIFYCYIRKRCLKLKSPYNVCSGERRPL | rapid rise in EGFR activity followed by a plateau within minutes |  |
| FGF4: activating ligand used to stimulate FGFR1 pYtag-expressing cells (protein, UniProt P08620 31-206, looked up) Fibroblast growth factor 4: APTAPNGTLEAELERRWESLVALSLARLPVAAQPKEAAVQSGAGDYLLGIKRLRRLYCNVGIGFHLQALPDGRIGGAHADTRDSLLELSPVERGVVSIFGVASRFFVAMSSKGKLYGSPFFTDECTFKEILLPNNYNAYESYKYPGMFIALSKNGKTKKGNRVSPTMKVTHFLPRL |  | induced cytosolic clearance of ZtSH2 |
